We go through two compounds from PMC9063841, “Structural insights into choline-O-sulfatase reveal the molecular determinants for ligand binding” (Acta Crystallographica. Section D, Structural Biology, 2022).

Assay [1] concerns the target wild-type Sinorhizobium (Ensifer) meliloti choline-O-sulfatase (Sinorhizobium (Ensifer) meliloti CECT4857) (UniProt O69787). Nature of the assay: SEC; 100 ul samples of SmeCOSe (0.1-1 mg/ml, three concentrations) on a Tricorn Superdex 200 column, 20 mM Tris-HCl pH 8.0; mass estimated against standards.
Assay [2] shares this target. Nature of the assay: dynamic light scattering; 20 uM (in protomer units), 20 mM Tris-HCl pH 8.0, 20 C; mass from the hydrodynamic radius assuming a spherical shape.
In another assay the target is T1, SmeCOSe (Sinorhizobium meliloti, UniProt O69787).
T1 construct: gene betC; full length, C-terminal His6 (pET-21b(+), plasmid pSERQF5), E. coli BL21(DE3); homotetramer, about 201 kDa; Cys54 is formylglycine in wild type; natural difference at residue 105 (printed F105L against strain GR4 CP003933.2, but L105F)
Nature of the assay: absorbance at […] nm (p-nitrophenol release). Type of assay: biochemical. As to conditions: pH 7.0.

The stoichiometry N is the number of molecules, sites or subunits per partner or assembly. Regarding “wild-type Sinorhizobium (Ensifer) meliloti choline-O-sulfatase (from UniProt O69787 2-512) (enzyme)”, the stoichiometry N in assay [1] and in assay [2] was 4 throughout.
Broadly, the Km is the concentration of substrate that gives half-maximal velocity. With `O=[N+]([O-])c1ccc(OS(=O)(=O)O)cc1` [pNPS], on SmeCOSe, the Km amounted to 45.7 ± 12.5 mM.
